From patent publication US20100167357A1 (CELLECTIS, published 2010) come the findings set out here.

Data set [1] deals with T1, M3 E8K K96E.
T1 chain: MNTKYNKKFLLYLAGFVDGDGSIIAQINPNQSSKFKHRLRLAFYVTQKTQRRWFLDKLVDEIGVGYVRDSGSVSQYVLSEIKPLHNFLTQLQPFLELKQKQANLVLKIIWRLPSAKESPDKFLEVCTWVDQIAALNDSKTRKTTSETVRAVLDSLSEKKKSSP

Data set [2] deals with T2, D137R RAG1.10.3 cutter (M3 D137R).
T2 chain: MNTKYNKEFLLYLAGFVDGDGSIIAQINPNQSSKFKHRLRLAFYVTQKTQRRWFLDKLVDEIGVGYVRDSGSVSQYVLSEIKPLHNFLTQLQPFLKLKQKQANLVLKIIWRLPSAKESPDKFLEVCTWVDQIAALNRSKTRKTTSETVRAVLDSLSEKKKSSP

For data set [3], the target named is T3, R51D RAG1.10.3 cutter (M3 R51D).
T3 chain: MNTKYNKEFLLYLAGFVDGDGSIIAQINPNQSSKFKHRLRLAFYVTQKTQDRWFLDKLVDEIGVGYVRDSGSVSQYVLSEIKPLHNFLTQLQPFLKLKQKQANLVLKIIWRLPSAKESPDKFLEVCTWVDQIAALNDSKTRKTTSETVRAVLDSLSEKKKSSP

Data set [4] addresses T4, M3 E8K E61R.
T4 chain: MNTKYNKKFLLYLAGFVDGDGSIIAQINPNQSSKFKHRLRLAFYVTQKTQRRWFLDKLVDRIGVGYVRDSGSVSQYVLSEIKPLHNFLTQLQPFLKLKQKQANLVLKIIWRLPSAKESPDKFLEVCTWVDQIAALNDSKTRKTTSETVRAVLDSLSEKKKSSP

The target in data set [5] is T5, M3 K7E K96E.
T5 chain: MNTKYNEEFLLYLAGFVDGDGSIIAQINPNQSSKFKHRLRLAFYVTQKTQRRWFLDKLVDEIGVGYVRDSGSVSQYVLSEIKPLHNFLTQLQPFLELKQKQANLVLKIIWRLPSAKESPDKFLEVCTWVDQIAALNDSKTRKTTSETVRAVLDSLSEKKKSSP

Data set [6] deals with T6, M3 K7E E61R.
T6 chain: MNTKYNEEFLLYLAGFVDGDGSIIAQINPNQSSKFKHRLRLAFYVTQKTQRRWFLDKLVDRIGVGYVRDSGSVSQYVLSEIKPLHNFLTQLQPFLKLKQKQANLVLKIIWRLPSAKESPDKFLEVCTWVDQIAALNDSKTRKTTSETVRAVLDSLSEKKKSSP

Data set [7] concerns the molecule itself. The data set can be described thus: analytical ultracentrifugation of the individually expressed protein (monomer plus higher aggregates seen). On the procedure:
To check the oligomeric status of the purified designed enzymes, their size profiles was measured by analytical ultracentrifugation (FIG. 6). In the case of individually-expressed A1, A2, B3 and B4 proteins, the appearance of the expected monomeric enzyme was observed. However, higher molecular weight aggregates were also detected, including trimers and tetramers (FIG. 6B; only KTG-A2 and QAN-B3 are shown, although similar results were obtained with the other designs). Therefore the designed enzymes were indeed unable to homodimerise, and this may have affected their stability and aggregation properties during purification.

In data set [8] the target is T7, QAN-B3 (QAN with K7E, F54G, L58M, K96E), His tag removed, co-expressed from pCDFDuet1.
T7 chain: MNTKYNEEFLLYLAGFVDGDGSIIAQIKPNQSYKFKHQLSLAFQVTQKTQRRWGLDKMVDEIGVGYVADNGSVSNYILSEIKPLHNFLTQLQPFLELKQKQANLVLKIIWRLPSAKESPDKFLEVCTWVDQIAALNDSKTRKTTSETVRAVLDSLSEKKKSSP

Data set [9] deals with T8, KTG-B3 (KTG with the B3 interface: K7E, F54G, L58M, K96E).
T8 chain: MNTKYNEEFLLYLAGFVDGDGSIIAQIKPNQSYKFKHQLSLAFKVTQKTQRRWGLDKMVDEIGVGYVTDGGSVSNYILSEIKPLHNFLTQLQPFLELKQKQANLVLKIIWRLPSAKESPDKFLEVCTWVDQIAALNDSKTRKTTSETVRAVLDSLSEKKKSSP

B1: M2 K7E E61R (protein)
chain: MNTKYNEEFLLYLAGFVDGDGSIIAQIKPRQSNKFKHQLSLAFAVTQKTQRRWFLDKLVDRIGVGYVYDSGSVSDYRLSEIKPLHNFLTQLQPFLKLKQKQANLVLKIIWRLPSAKESPDKFLEVCTWVDQIAALNDSKTRKTTSETVRAVLDSLSEKKKSSP
As to B1, the “cleavage of the RAG1.10 target, yeast screening assay (OH1)” value in [1] is “They have a strong cleavage activity toward the RAG1.10 target equivalent to the M2/M3 heterodimer activity, while they display almost non detectable homodimeric activities”.

B2: R51D RAG1.10.2 cutter (M2 R51D) (protein)
chain: MNTKYNKEFLLYLAGFVDGDGSIIAQIKPRQSNKFKHQLSLAFAVTQKTQDRWFLDKLVDEIGVGYVYDSGSVSDYRLSEIKPLHNFLTQLQPFLKLKQKQANLVLKIIWRLPSAKESPDKFLEVCTWVDQIAALNDSKTRKTTSETVRAVLDSLSEKKKSSP
As to B2, the “cleavage of the palindromic RAG1.10.2 target, direct repeat recombination (LacZ) assay in yeast” value is “no cleavage of the RAG1.10.2 and RAG1.10.3 targets was visible”. Besides, in data set [2], the “cleavage of the RAG1.10 target, direct repeat recombination (LacZ) assay in yeast” value was “resulted in an efficient cleavage of the RAG1.10 target while no cleavage of the RAG1.10.2 and RAG1.10.3 targets was visible”.

B3: D137R RAG1.10.2 cutter (M2 D137R) (protein)
chain: MNTKYNKEFLLYLAGFVDGDGSIIAQIKPRQSNKFKHQLSLAFAVTQKTQRRWFLDKLVDEIGVGYVYDSGSVSDYRLSEIKPLHNFLTQLQPFLKLKQKQANLVLKIIWRLPSAKESPDKFLEVCTWVDQIAALNRSKTRKTTSETVRAVLDSLSEKKKSSP
For B3, the “cleavage of the RAG1.10 target, direct repeat recombination (LacZ) assay in yeast” value in data set [3] is reported as “leads also to the formation of an obligatory heterodimer, which is yet less active than the precedent one on the RAG1.10 target”.

B4: M2 K7E K96E (protein)
chain: MNTKYNEEFLLYLAGFVDGDGSIIAQIKPRQSNKFKHQLSLAFAVTQKTQRRWFLDKLVDEIGVGYVYDSGSVSDYRLSEIKPLHNFLTQLQPFLELKQKQANLVLKIIWRLPSAKESPDKFLEVCTWVDQIAALNDSKTRKTTSETVRAVLDSLSEKKKSSP
Take B4: the “cleavage of the RAG1.10 target, yeast screening assay (OH3)” value in [4] was “They have a strong cleavage activity toward the RAG1.10 target equivalent to the M2/M3 heterodimer activity, while they display almost non detectable homodimeric activities”.

B5: M2 E8K E61R (protein)
chain: MNTKYNKKFLLYLAGFVDGDGSIIAQIKPRQSNKFKHQLSLAFAVTQKTQRRWFLDKLVDRIGVGYVYDSGSVSDYRLSEIKPLHNFLTQLQPFLKLKQKQANLVLKIIWRLPSAKESPDKFLEVCTWVDQIAALNDSKTRKTTSETVRAVLDSLSEKKKSSP
Consider B5, for which, in data set [5], the “cleavage of the RAG1.10 target, yeast screening assay (OH2)” value is “They have a strong cleavage activity toward the RAG1.10 target equivalent to the M2/M3 heterodimer activity, while they display almost non detectable homodimeric activities”.

B6: M2 E8K K96E (protein)
chain: MNTKYNKKFLLYLAGFVDGDGSIIAQIKPRQSNKFKHQLSLAFAVTQKTQRRWFLDKLVDEIGVGYVYDSGSVSDYRLSEIKPLHNFLTQLQPFLELKQKQANLVLKIIWRLPSAKESPDKFLEVCTWVDQIAALNDSKTRKTTSETVRAVLDSLSEKKKSSP
B6: the “cleavage of the RAG1.10 target, yeast screening assay (OH4)” value in [6] is recorded as “They have a strong cleavage activity toward the RAG1.10 target equivalent to the M2/M3 heterodimer activity, while they display almost non detectable homodimeric activities”.

B7: QAN-B4 (QAN with the B4 interface: B3 mutations K7E, F54G, L58M, K96E plus Glycine at position 97) (enzyme)
chain: MANTKYNEEFLLYLAGFVDGDGSIIAQIKPNQSYKFKHQLSLTFQVTQKTQRRWGLDKMVDEIGVGYVADNGSVSNYILSEIKPLHNFLTQLQPFLEGKQKQANLVLKIIEQLPSAKESPDKFLEVCTWVDQIAALNDSKTRKTTSETVRAVLDSLSEKKKSSPAAALEHHHHHH
notes: Purified by His tag when expressed alone
On to B7, for which the binding result in data set [7] is given as “no binding”.

B8: D137R RAG1.10.3 cutter (M3 D137R) (protein)
chain: MNTKYNKEFLLYLAGFVDGDGSIIAQINPNQSSKFKHRLRLAFYVTQKTQRRWFLDKLVDEIGVGYVRDSGSVSQYVLSEIKPLHNFLTQLQPFLKLKQKQANLVLKIIWRLPSAKESPDKFLEVCTWVDQIAALNRSKTRKTTSETVRAVLDSLSEKKKSSP
On to B8, for which the “cleavage of the palindromic RAG1.10.3 target, direct repeat recombination (LacZ) assay in yeast” value is “no cleavage of the RAG1.10.2 and RAG1.10.3 targets was visible”.

B9: KTG-A2 (KTG with K7R, E8R, F54W, E61R, K96R, L97F) (enzyme)
chain: MNTKYNRRFLLYLAGFVDGDGSIIAQIKPNQSYKFKHQLSLAFKVTQKTQRRWWLDKLVDRIGVGYVTDGGSVSNYILSEIKPLHNFLTQLQPFLRFKQKQANLVLKIIWRLPSAKESPDKFLEVCTWVDQIAALNDSKTRKTTSETVRAVLDSLSEKKKSSP
notes: Designed monomer; Expressed with a His tag from pET-series plasmid pCLS1211
With B9, the binding result in data set [7] is reported as “no binding”. For the same protein, in [8], the “in vitro cleavage of linearized plasmid DNA targets (agarose gel)” value is “clear specific cleavage of the heterodimer DNA target (gtt/agg) and barely of the homodimeric targets (cct/agg and gtt/aac; FIG. 7A) was observed”.

B10: QAN-A1 (QAN with the A1 interface: K7R, E8R, E61R, K96R, L97F; Phe kept at position 54) (enzyme)
chain: MNTKYNRRFLLYLAGFVDGDGSIIAQIKPNQSYKFKHQLSLAFQVTQKTQRRWFLDKLVDRIGVGYVADNGSVSNYILSEIKPLHNFLTQLQPFLRFKQKQANLVLKIIWRLPSAKESPDKFLEVCTWVDQIAALNDSKTRKTTSETVRAVLDSLSEKKKSSP
notes: as for B7
As to B10, the binding result in data set [7] was “no binding”. For the same protein, the “in vitro cleavage of linearized plasmid DNA targets (agarose gel)” value in [9] is recorded as “specific cleavage of the heterodimer, but at reduced level compared to the KTG-A2/QAN-B3 combination”.

B11: KTG-B3 (KTG with the B3 interface: K7E, F54G, L58M, K96E) (enzyme)
chain: MNTKYNEEFLLYLAGFVDGDGSIIAQIKPNQSYKFKHQLSLAFKVTQKTQRRWGLDKMVDEIGVGYVTDGGSVSNYILSEIKPLHNFLTQLQPFLELKQKQANLVLKIIWRLPSAKESPDKFLEVCTWVDQIAALNDSKTRKTTSETVRAVLDSLSEKKKSSP
notes: as for B7
For B11, the binding result in data set [7] is listed as “no binding”.

B12: QAN-B3 (QAN with K7E, F54G, L58M, K96E), individually expressed and purified (enzyme)
chain: MNTKYNEEFLLYLAGFVDGDGSIIAQIKPNQSYKFKHQLSLAFQVTQKTQRRWGLDKMVDEIGVGYVADNGSVSNYILSEIKPLHNFLTQLQPFLELKQKQANLVLKIIWRLPSAKESPDKFLEVCTWVDQIAALNDSKTRKTTSETVRAVLDSLSEKKKSSP
notes: Designed monomer; His-tagged form from pET-series plasmid pCLS1214, purified on a nickel column
Turning to B12, in data set [7], the binding result is listed as “no binding”.
